Source: patent US20260193363A1 (US Dept. of Health and Human Services, published 2026)

What was measured:
[1] = biological target: EGFRvIII on DKMG-EGFRvIII cells (human glioblastoma line DKMG transduced with EGFRvIII); assay: cell-based or functional assay
[2] = biological target: T1, EGFR overexpressed on cancer cell lines MDA-MB-468 and A431 (human, UniProt P00533 25-1210); assay: flow cytometry, antibodies added at 2 µg/ml, MDA-MB-468 cells
T1 construct: whole, on cells; also called overexpressed EGFR; cancer-expressed EGFR

[3] = biological target: T2, EGFRvIII extracellular domain, His-tagged (human); assay: BLI (Octet Red96), His-tagged antigen on Ni-NTA biosensors, antibody in solution, 30 C
T2 construct: extracellular domain; also called EGFRvIII-His; EGFRvIII-HIS

[4] = biological target: T3, EGFRvIII on F98npEGFRvIII cells (rat glioma F98 transfected with nonphosphorylated EGFRvIII); assay: flow cytometry, antibodies added at 2 µg/ml, F98-npEGFRvIII cells
T3 construct: whole, on cells; also called F98-EGFRvIII

[5] = biological target: T1, EGFR overexpressed on cancer cell lines …; assay: flow cytometry, antibodies added at 2 µg/ml, A431 cells
[6] = biological target: T4, wild-type EGFR extracellular domain, His-tagged (human, UniProt P00533 25-645); assay: ELISA, purified antibody on His-tagged ECD, OD450
T4 construct: extracellular domain; also called wtEGFR-His; EGFRwt ECD

[7] = biological target: T5, wild-type EGFR on F98EGFR cells (rat glioma F98 transfected with full-length EGFR) (UniProt P00533 25-1210, limits assumed); assay: flow cytometry, antibodies added at 2 µg/ml, F98-EGFR cells
T5 construct: whole, on cells; also called wtEGFR on transfected F98 cells

[8] = biological target: T6, wtEGFR at physiological levels on WI-38 cells (human, UniProt P00533 25-1210); assay: flow cytometry, antibodies added at 2 µg/ml, WI-38 cells
T6 construct: whole, on cells; also called normal cells

[9] = biological target: T4, wild-type EGFR extracellular domain, …; assay: ELISA, hybridoma supernatant on His-tagged ECD on nickel-coated 96-well plate, OD450

B1: 40H3 MMAE antibody drug conjugate (antibody, V domains shown)
VH: QVQLKQSGPGLVQPSQSLSITCTVSGFSLTNYGIHWLRQSPGKGLEWLGMMWRGGGTDYNAAFISRLTITKDTSKSQVFFRMNNLQTNDTAIYYCARKGVGMGLGYWGQGTSVTVSS
VL: DIQMTQSPASQSASLGESVTITCLASQTIGTWVAWYQQKPGRSPQLLIYGATNLADGVPSRFSGSGSGTKFSFKISSLQAEDFVSYYCQQLYSNPYTFGGGTKLEIK
[1]
  IC50 (nM), cell viability, DKMG EGFRvIII cells: 1.9 nM

B2: 40H3 DM1 antibody drug conjugate (antibody, V domains shown)
VH: QVQLKQSGPGLVQPSQSLSITCTVSGFSLTNYGIHWLRQSPGKGLEWLGMMWRGGGTDYNAAFISRLTITKDTSKSQVFFRMNNLQTNDTAIYYCARKGVGMGLGYWGQGTSVTVSS
VL: DIQMTQSPASQSASLGESVTITCLASQTIGTWVAWYQQKPGRSPQLLIYGATNLADGVPSRFSGSGSGTKFSFKISSLQAEDFVSYYCQQLYSNPYTFGGGTKLEIK
[1]
  IC50 (nM), cell viability, DKMG EGFRvIII cells: 0.56 nM

B3: monoclonal antibody 40H3 (antibody, V domains shown)
VH: QVQLKQSGPGLVQPSQSLSITCTVSGFSLTNYGIHWLRQSPGKGLEWLGMMWRGGGTDYNAAFISRLTITKDTSKSQVFFRMNNLQTNDTAIYYCARKGVGMGLGYWGQGTSVTVSS
VL: DIQMTQSPASQSASLGESVTITCLASQTIGTWVAWYQQKPGRSPQLLIYGATNLADGVPSRFSGSGSGTKFSFKISSLQAEDFVSYYCQQLYSNPYTFGGGTKLEIK
notes: also called ma40H3 GS; 40H3 (full length antibody)
[2]
  Median : PE-A: 2140
[3]
  Kd: 270 pM
  koff: 4.51e-05 s⁻¹
  kon: 167000 M⁻¹ s⁻¹
[4]
  Median : PE-A: 1120
[5]
  Median : PE-A: 3160

B4: monoclonal antibody 11E11 (antibody, V domains shown)
VH: QVQLKQSGPSLVQPSQSLSITCTVSGFSLTNYGVHWIRQSPGKGLEWLGVKWRGGRTDYNAAFMSRLSITRDNSRSQVFFKMNSLQTDDTAIYYCAKNGPFGNFAGYWGQGTLVTVSA
VL: DIVMSQSPSSLAVSVGEKVSLTCKSSQSLLDNQKHYLAWYQQKPGQSPKLLIYWASTRESGVPDRFTGSGSGTEFTLTISSVKAEDLAVYYCQQFYNYPYTFGGGTKLEIK
[2]
  Median : PE-A: 216
[4]
  Median : PE-A: 1440
[6]
  binding result: no binding (tested: 5 ng/ml)
[5]
  Median : PE-A: 274

B5: monoclonal antibody 1D9 (antibody, V domains shown)
VH: QVQLKQSGRSLVQPSQSLSITCTVSGFSLTDYGVHWIRQSPGKGLEWLGVIWRSGRTDYNAVFMSRLSITKDNSKSQVFFKMNGLQTDDTAIYYCAKNGPFGNFAGYWGQGTPVAVSA
VL: DIVMSQSPSSLAVSVGEKVTMRCRSSQSLLDSYHQKNYLAWYLQKPGQSPKLLIYWASTRESGVPDRFTGSGSGTDFTLTISSVKAEDLAVYYCQEYYRYPYTFGGGTKLEIK
[7]
  Median : PE-A: 45.5
[2]
  Median : PE-A: 166
[4]
  Median : PE-A: 1230
[8]
  Median : PE-A: 41.4
[5]
  Median : PE-A: 136
[9]
  binding result: no binding

B6: monoclonal antibody 11G3 (antibody, V domains shown)
VH: QVQLKQSGPSLVQPSQSLSITCTVSGFSLTNYGVHWVRQSPGKGLEWLGVMWRGGRTDYNAAFMSRLSITKDNSRSQVFFKMNSLQTDDAAIYYCAKNGPFGNFAGYWGQGTLVTVST
VL: DIVMSQSPSSLPVSVGEKVSLTCKSSRSLLDNQKHYLAWYQQKPGQSPKLLIYWASTRESGVPDRFTGSGSGTEFTLTISSVKAEDLAVYYCQQFYNYPYTFGGGTKLEIK
[7]
  Median : PE-A: 37.9
[2]
  Median : PE-A: 90.3
[8]
  Median : PE-A: 39.6
[6]
  binding result: no binding (tested: 5 ng/ml)
[5]
  Median : PE-A: 90.3

B7: monoclonal antibody 4A4 (antibody, V domains shown)
VH: QVQLKQSGRSLVQPSQSLSITCTVSGFSLTDYGVHWIRQSPGKGLEWLGVIWRSGRTDYNAVFMSRLSITKDNSKSQVFFKMNGLLIEDTAIYYCAKNGPFGNFAGYWGQGTPVAVSA
VL: DIVMSQSPSSLAVSVGEKVTMRCRSSQSLLDSYHQKNYLAWYLQKPGQSPKLLIYWASTRESGVPDRFTGSGSGTDFTLTISSVKAEDLAAYYCQEYYRYPYTFGGGTKLEIK
[7]
  Median : PE-A: 41.7
[2]
  Median : PE-A: 130
[4]
  Median : PE-A: 1110
[8]
  Median : PE-A: 48
[6]
  binding result: no binding (tested: 5 ng/ml)
[5]
  Median : PE-A: 83.3

B8: monoclonal antibody 3D10 (antibody, V domains shown)
VH: QVQLKQSGPGLVQPSQSLSIICTVSGFSLTRNGVHWVRQSPGKGLEWVGVIWRSGRTDYDAAFMSRLSITKDNSKSQVFFKMNSLQADDTAIYYCVKNGDDGNYGTYWGQGTLVTVSA
VL: DIVMSQSPSSLGVSVGEKVTMSCKSSQSLLDSRNQKNYLAWYQQKPGQSPKLLIYWASTRESGVPDRFTGSGSGTEFTLTISSVKAEDLAIYYCQQYYNYPYTFGGGTKLEIT
[2]
  Median : PE-A: 205
[4]
  Median : PE-A: 1420
[5]
  Median : PE-A: 196
[9]
  binding result: no binding

B9: monoclonal antibody 9G11 (antibody, V domains shown)
VH: QVQLKQSGPGLVQPSQSLSITCTVSGFSLTRNGVHWVRQSPGKGLEWVGVIWRGGRTDYDAAFMSRLSITKDNSKSQVFFKMNSLQADDTAIYYCVKNGDDGNYGTYWGQGTLVTVSA
VL: DIVMSQSPSSLGVSVGEKVTMSCKSSQSLLDSRNQKNYLAWYQQKPGQSPKLLIYWASTRESGVPDRFTGSGSGTEFTLTISSVKAEDLAIYYCQQYYNYPYTFGGGTKLEIT
[2]
  Median : PE-A: 166
[4]
  Median : PE-A: 1010
[6]
  binding result: no binding (tested: 5 ng/ml)
[5]
  Median : PE-A: 160
